US20120278951A1 (AGRESEARCH, published 2012)

Key:
[1] = target: the molecule itself; assay: self-association (dimer) seen by SDS-PAGE/immunoblot; almost completely disrupted by SDS plus urea
[2] = target: the molecule itself; assay: self-association seen by SDS and SDS-UREA PAGE/immunoblot; on artificial oil bodies with GSSG also trimeric, tetrameric and likely pentameric disulfide cross-linked oligomers
[3] = target: the molecule itself; assay: self-association / disulfide cross-linking seen by SDS and SDS-UREA PAGE/immunoblot of inclusion bodies and artificial oil bodies
[4] = target: the molecule itself; assay: disulfide cross-linked oligomers seen by non-reducing SDS-PAGE/immunoblot of artificial oil bodies

B1: Oleosin disulfide 0,0 (sesame seed oleosin without engineered cysteines), E. coli expressed from pET29b (other)
chain: MKETAAAKFERQHMDSPDLGTLVPRGSMAEHYGQQQQTRAPHLQLQPRAQRVVKAATAVTAGGSLLVLSGLTLAGTVIALTIATPLLVIFSPVLVPAVITIFLLGAGFLASGGFGVAALSVLSWIYRYLTGKHPPGADQLESAKTKLASKAREMKDRAEQFSQQPVPWLISDPNSSSVDKLAAALEHHHHHHH
notes: Purified from E. coli inclusion bodies; also called Ole-0-0; Oleosin-0-0
B1: binds [1].

B2: Oleosin disulfide 1,1 (sesame seed oleosin with one engineered cysteine in each hydrophilic arm), E. coli expressed from pET29b (other)
chain: MKETAAAKFERQHMDSPDLGTLVPRGSMACHYGQQQQTRAPHLQLQPRAQRVVKAATAVTAGGSLLVLSGLTLAGTVIALTIATPLLVIFSPVLVPAVITIFLLGAGFLASGGFGVAALSVLSWIYRYLTGKHPPGADQLESAKTKLASKAREMKDRAEQFSCQPVPWLEHHHHHH
notes: also called Ole-1-1; Oleosin-1-1
B2: binds [2].

B3: Oleosin disulfide 3,3 (sesame seed oleosin with three engineered cysteines in each hydrophilic arm), E. coli expressed from pET29b (other)
chain: MKETAAAKFERQHMDSPDLGTLVPRGSMACHYGQQQQTCAPHLQLQPRACRVVKAATAVTAGGSLLVLSGLTLAGTVIALTIATPLLVIFSPVLVPAVITIFLLGAGFLASGGFGVAALSVLSWIYRYLTGKHPPGADCLESAKTKLASCAREMKDRAEQFSCQPVPWLEHHHHHH
notes: also called Ole-3-3; Oleosin-3-3
B3: binds [3].

B4: Oleosin disulfide 1,3 (sesame seed oleosin with one N-terminal and three C-terminal engineered cysteines), E. coli expressed from pET29b (other)
chain: MKETAAAKFERQHMDSPDLGTLVPRGSMACHYGQQQQTRAPHLQLQPRAQRVVKAATAVTAGGSLLVLSGLTLAGTVIALTIATPLLVIFSPVLVPAVITIFLLGAGFLASGGFGVAALSVLSWIYRYLTGKHPPGADCLESAKTKLASCAREMKDRAEQFSCQPVPWLEHHHHHH
notes: also called Ole-1-3; Oleosin-1-3
B4: binds [4].

B5: Oleosin disulfide 3,1 (sesame seed oleosin with three N-terminal and one C-terminal engineered cysteines), E. coli expressed from pET29b (other)
chain: MKETAAAKFERQHMDSPDLGTLVPRGSMACHYGQQQQTCAPHLQLQPRACRVVKAATAVTAGGSLLVLSGLTLAGTVIALTIATPLLVIFSPVLVPAVITIFLLGAGFLASGGFGVAALSVLSWIYRYLTGKHPPGADQLESAKTKLASKAREMKDRAEQFSCQPVPWLEHHHHHH
notes: also called Ole-3-1; Oleosin-3-1
B5: binds [4].
